For the assay, the target named is PCSK9Δhelix (human). The assay is described as follows: phage spot ELISA.
Chain of PCSK9Δhelix (human) (prodomain, as listed by the source mutant limits assumed, chain 1 of 2): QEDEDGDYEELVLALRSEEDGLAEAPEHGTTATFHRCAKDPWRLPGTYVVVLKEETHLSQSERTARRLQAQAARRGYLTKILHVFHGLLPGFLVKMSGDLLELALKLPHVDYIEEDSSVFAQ
Chain of PCSK9Δhelix (human) (chain, as listed by the source mutant limits assumed, chain 2 of 2): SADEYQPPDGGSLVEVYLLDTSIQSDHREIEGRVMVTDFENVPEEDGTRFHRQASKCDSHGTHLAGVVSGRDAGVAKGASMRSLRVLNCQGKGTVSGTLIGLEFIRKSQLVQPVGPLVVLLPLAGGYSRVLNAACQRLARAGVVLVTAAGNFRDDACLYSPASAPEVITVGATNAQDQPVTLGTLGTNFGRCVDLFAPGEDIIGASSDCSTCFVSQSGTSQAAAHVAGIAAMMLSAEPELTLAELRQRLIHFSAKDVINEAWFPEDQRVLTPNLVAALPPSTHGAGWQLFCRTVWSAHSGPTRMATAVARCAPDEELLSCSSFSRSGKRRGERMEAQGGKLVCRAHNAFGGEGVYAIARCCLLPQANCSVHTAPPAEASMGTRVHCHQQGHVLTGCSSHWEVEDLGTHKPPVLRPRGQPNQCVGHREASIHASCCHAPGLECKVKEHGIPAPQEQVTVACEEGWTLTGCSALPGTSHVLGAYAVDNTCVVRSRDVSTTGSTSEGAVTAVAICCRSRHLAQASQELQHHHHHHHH

Consider TAFTSWEEYLDWVGSGCMEAWQCSLA [SEQ ID NO 337], for which the ELISA came out at 2.76 and the s/n ratio was determined as 1.49.
Take SGDFIPWNLVRIGLLR [SEQ ID NO 385]: the ELISA turned out to be 0.657 and the s/n ratio came to 5.01.
Take SGVCSDHYIGGKEVRC [SEQ ID NO 378]: the ELISA turned out to be 1.21 and the s/n was 1.85.

These data come from US20200283478A1.
